# Target: His-tagged N-terminal domain (1-165 aa) of matrix protein 1 (M1) of influenza A virus A/WSN/33 (H1N1) (Influenza A virus A/WSN/33 (H1N1)) (UniProt P05777)
# Test: crystal structure
substance,measurement,value
His-tagged N-terminal domain (1-165 aa) of matrix protein 1 (M1) of influenza A virus A/WSN/33 (H1N1) (from UniProt P05777 1-165) (domain or fragment),stoichiometry N,2
